In publication PMC3789764:

Biological target: Ku70 (in Ku70/Ku80ΔC);Ku80ΔC (in Ku70/Ku80ΔC) (human;human, UniProt P12956;P13010 1-609;1-590, |)
Assay: EMSA
Conditions: protein: recombinant;recombinant; tags: N-terminal Strep tag II;; copies: 1;1

Ku70 (in Ku70/Ku80ΔC);Ku80ΔC (in Ku70/Ku80ΔC), sequence (P12956 whole entry, stated change not applied, chain 1 of 2): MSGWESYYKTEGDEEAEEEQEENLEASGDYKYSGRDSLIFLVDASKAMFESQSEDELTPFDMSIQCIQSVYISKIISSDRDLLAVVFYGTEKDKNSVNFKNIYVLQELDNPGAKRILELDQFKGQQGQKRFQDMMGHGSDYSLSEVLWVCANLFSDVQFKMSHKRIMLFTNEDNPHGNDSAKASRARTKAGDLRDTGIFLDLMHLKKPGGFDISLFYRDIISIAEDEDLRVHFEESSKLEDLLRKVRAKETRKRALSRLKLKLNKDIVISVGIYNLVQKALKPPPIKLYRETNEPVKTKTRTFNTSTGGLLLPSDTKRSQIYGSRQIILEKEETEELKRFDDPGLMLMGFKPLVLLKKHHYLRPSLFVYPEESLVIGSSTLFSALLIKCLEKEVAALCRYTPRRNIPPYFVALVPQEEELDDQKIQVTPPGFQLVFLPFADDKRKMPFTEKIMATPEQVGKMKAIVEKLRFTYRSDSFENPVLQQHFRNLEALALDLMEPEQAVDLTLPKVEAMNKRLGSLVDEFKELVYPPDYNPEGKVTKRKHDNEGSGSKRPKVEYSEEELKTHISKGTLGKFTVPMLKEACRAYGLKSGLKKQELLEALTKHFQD
Ku70 (in Ku70/Ku80ΔC);Ku80ΔC (in Ku70/Ku80ΔC), sequence (P13010 1-590, stated change not applied, chain 2 of 2): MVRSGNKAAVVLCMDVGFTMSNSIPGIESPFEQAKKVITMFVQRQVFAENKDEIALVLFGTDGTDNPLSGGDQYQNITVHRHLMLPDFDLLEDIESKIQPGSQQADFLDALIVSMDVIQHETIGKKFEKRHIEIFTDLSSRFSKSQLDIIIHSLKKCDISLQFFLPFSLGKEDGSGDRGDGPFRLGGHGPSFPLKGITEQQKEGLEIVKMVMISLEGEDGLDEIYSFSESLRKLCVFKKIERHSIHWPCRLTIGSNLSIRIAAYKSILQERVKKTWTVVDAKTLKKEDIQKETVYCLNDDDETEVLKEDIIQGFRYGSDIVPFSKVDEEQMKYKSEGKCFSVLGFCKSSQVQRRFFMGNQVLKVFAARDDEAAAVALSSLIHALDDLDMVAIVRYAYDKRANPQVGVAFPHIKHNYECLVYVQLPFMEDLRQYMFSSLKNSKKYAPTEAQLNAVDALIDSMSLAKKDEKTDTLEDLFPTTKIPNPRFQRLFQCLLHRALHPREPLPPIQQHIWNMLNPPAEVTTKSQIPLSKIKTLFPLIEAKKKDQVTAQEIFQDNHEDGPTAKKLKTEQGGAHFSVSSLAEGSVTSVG

B1: Cy3 19-bp duplex (dsDNA)
DNA 1: GAAAGCTATGGGCGCGGTT
DNA 2: AACCGCGCCCATAGCTTTC
binding result: binds
